This note sets out measurements from US20200283521A1 (GRANULAR THERAPEUTICS, published 2020).

For orientation: EC50 (read off the curve) means the concentration that produces a half-maximal response. By IC50 is commonly meant the concentration that gives 50% inhibition.

Test [1] has as its target T1, cynomolgus monkey C-KIT-Fc (cynomolgus monkey).
T1 construct: also called cyno C-KIT-Fc
Briefly: direct titration ELISA on coated C-KIT-Fc, IgG1 format. (An ELISA detects its analyte on a solid surface through an enzyme-linked reagent.)

Test [2] deals with T2, cynomolgus monkey C-KIT, full length, on CHO-K1 cells (cynomolgus monkey).
T2 construct: whole, on cells; also called cyno C-KIT+ CHO-K1 cells
Briefly: flow cytometry, C-KIT-transfected CHO-K1 cells, IgG1 format. (In general: A flow cytometer gives signals particle by particle.)

Test [3] deals with T3, human C-KIT, full length, on cells (human, UniProt P10721 26-976).
T3 construct: full-length cDNA stably transfected in CHO-K1; also used here for endogenous C-KIT of TF-1 cells; also called human C-KIT+ CHO-K1 cells; C-KIT on TF-1 cells
Described as above.

Test [4] addresses T3, human C-KIT, full length, on cells. The test is described as follows: cell-based or functional assay.
Test [5] has as its target T2, cynomolgus monkey C-KIT, full length, …. The test is described as follows: cell-based or functional assay.
For test [6], the target named is T3, human C-KIT, full length, on cells. The test is described as follows: cell-based or functional assay. This is another data set of the same source.
In test [7] the target is T4, human C-KIT-Fc (human, UniProt P10721 26-524).
T4 construct: also called biotinylated human C-KIT-Fc; not shown: Fc part not described
Briefly: direct titration ELISA on coated C-KIT-Fc, IgG1 format.

The target in test [8] is T3, human C-KIT, full length, on cells. Briefly: flow cytometry, C-KIT-transfected CHO-K1 cells, IgG1 format. This is another data set of the same source.
Test [9] has as its target T4, human C-KIT-Fc. Briefly: HTRF competition on human C-KIT-Fc against terbium-labelled h37M IgG1. A general note: Time-resolved FRET reads energy transfer from a long-lived donor to a nearby acceptor.
The target of test [10] is T4, human C-KIT-Fc. The test is described as follows: HTRF competition vs Tb-h37M IgG1.
For test [11], the target named is T1, cynomolgus monkey C-KIT-Fc. Briefly: HTRF competition vs Tb-h37M IgG1.

B1: chimeric anti-C-KIT antibody m37M, human IgG1 (antibody, V domains shown)
VH: QVQLKQSGAELVRPGASVKLSCKASGYTFTDYYINWVKQRPGQGLEWIARIYPGSGNTYYNEKFKGKATLTAEKSSSTAYMQLSSLTSEDSAVYFCARGVYYFDYWGQGTTLTVSS
VL: DIVMTQSQKFMSTSVGDRVSVTCKASQNVRTNVAWYQQKPGQSPKALIYSASYRYSGVPDRFTGSGSGTDFTLTISNVQSEDLADYFCQQYNSYPRTFGGGTKLEIKR
For the molecule B1, the “EC50 (read off the curve)” value in test [1] is ~0.1 µg/mL; in [2], ~0.2 µg/mL; in test [3] it was ~0.2 µg/mL.

B2: MH5-DI, IgG1-3M format (antibody, V domains shown)
VH: QVQLVQSGAEVKKPGASVKVSCKASGYTFTDYYMNWVRQAPGQGLEWMGRIYPGSGNTYYAQKFQGRVTMTRDTSTSTVYMELSSLRSEDTAVYYCARGVYYYDYWGQGTLVTVSS
VL: DIQMTQSPSSLSASVGDRVTITCRASQGIRTNLAWFQQKPGKAPKSLIYAASSLQSGVPSRFSGSGSGTDFTLTISSLQPEDFATYYCQQYANYPRTFGGGTKVEIK
B2: the “TF-1 proliferation, fold less potent than h37M” value in test [4] was 244 fold. In test [5], the “Cyno C-KIT CHO FabZAP IC50 (pM)” value is 13.5 pM. Further, in test [6], the “Human C-KIT CHO FabZAP IC50 (pM)” value was found to be 12.6 pM, the “TF-1 FabZAP IC50 (pM)” value was found to be 53.7 pM and the “TF-1 proliferation IC50” value turned out to be 26.3 nM.

B3: MH5.4 (antibody, IgG1, V domains shown)
VH: QVQLVQSGAEVKKPGASVKVSCKASGYTFTDHYMNWVRQAPGQGLEWMGRIYPGTGNTYYAQKFQGRVTMTRDTSTSTVYMELSSLRSEDTAVYYCARGVWYFDSWGQGTLVTVSS
VL: DIQMTQSPSSLSASVGDRVTITCRASQGIRTNLAWFQQKPGKAPKSLIYAASSLQSGVPSRFSGSGSGTDFTLTISSLQPEDFATYYCQQYANYPRTFGGGTKVEIK
notes: IgG1
Take B3: the binding result in test [7] is “binds”.

B4: MH12 (antibody, IgG1, V domains shown)
VH: QVQLVQSGAEVKKPGASVKVSCKASGYTFTDYYMNWVRQAPGQGLEWMGRIYPGSGNTYYAQKFQGRVTMTRDTSTSTVYMELSSLRSEDTAVYYCARGVYYYDYWGQGTLVTVSS
VL: DIQMTQSPSSLSASVGDRVTITCRASQGVRTNLAWFQQKPGKAPKSLIYAASSLQSGVPSRFSGSGSGTDFTLTISSLQPEDFATYYCQQYNSYPRTFGGGTKVEIK
notes: IgG1
For B4, the binding result in test [8] and in [9] was “binds” each time.

B5: MH5.35 (antibody, IgG1, V domains shown)
VH: QVQLVQSGAEVKKPGASVKVSCKASGYTFTNYYMNWVRQAPGQGLEWMGRIYPASGNTYYAQKFQGRVTMTRDTSTSTVYMELSSLRSEDTAVYYCARGVWYFDTWGQGTLVTVSS
VL: DIQMTQSPSSLSASVGDRVTITCRASQGIRTNLAWFQQKPGKAPKSLIYAASSLQSGVPSRFSGSGSGTDFTLTISSLQPEDFATYYCQQYANYPRTFGGGTKVEIK
notes: IgG1; also called C-KIT-MH5.35
For B5, the “EC50 (read off the curve)” value in test [2] was ~0.2 µg/mL; in test [3], ~0.1 µg/mL. Further, the IC50 in [10] turned out to be 2.05 µg/mL; in test [11], 0.785 µg/mL.

B6: MH5.10 (antibody, IgG1, V domains shown)
VH: QVQLVQSGAEVKKPGASVKVSCKASGYTFTDHYMNWVRQAPGQGLEWMGRIYPGAGNTYYAQKFQGRVTMTRDTSTSTVYMELSSLRSEDTAVYYCARGVWYFDEWGQGTLVTVSS
VL: DIQMTQSPSSLSASVGDRVTITCRASQGIRTNLAWFQQKPGKAPKSLIYAASSLQSGVPSRFSGSGSGTDFTLTISSLQPEDFATYYCQQYANYPRTFGGGTKVEIK
notes: IgG1
For B6, in [7], the binding result is recorded as “binds”.

B7: MH5.1 (antibody, IgG1, V domains shown)
VH: QVQLVQSGAEVKKPGASVKVSCKASGYTFTNYYMNWVRQAPGQGLEWMGRIYPGTGNTYYAQKFQGRVTMTRDTSTSTVYMELSSLRSEDTAVYYCARGVWYYDYWGQGTLVTVSS
VL: DIQMTQSPSSLSASVGDRVTITCRASQGIRTNLAWFQQKPGKAPKSLIYAASSLQSGVPSRFSGSGSGTDFTLTISSLQPEDFATYYCQQYANYPRTFGGGTKVEIK
notes: IgG1; also called C-KIT-MH5.1
Regarding B7, the concentration giving a half-maximal response (EC50 (read off the curve)) in test [2] and in test [3] was ~0.2 µg/mL throughout. Further, the results for the IC50 in test [10] and in [11] were 0.684 µg/mL and 0.633 µg/mL, respectively.

B8: MH5.2 (antibody, IgG1, V domains shown)
VH: QVQLVQSGAEVKKPGASVKVSCKASGYTFTDFYMNWVRQAPGQGLEWMGRIYPGTGNTYYAQKFQGRVTMTRDTSTSTVYMELSSLRSEDTAVYYCARGVWYYDYWGQGTLVTVSS
VL: DIQMTQSPSSLSASVGDRVTITCRASQGIRTNLAWFQQKPGKAPKSLIYAASSLQSGVPSRFSGSGSGTDFTLTISSLQPEDFATYYCQQYANYPRTFGGGTKVEIK
notes: IgG1; also called C-KIT-MH5.2
In the case of B8, the “EC50 (read off the curve)” value in test [2] and in test [3] was ~0.2 µg/mL in each case. The IC50 in test [10] stood at 0.272 µg/mL; in [11], 0.254 µg/mL.

B9: MH8 (antibody, IgG1, V domains shown)
VH: QVQLVQSGAEVKKPGASVKVSCKASGYTFTDYYMNWVRQAPGQGLEWMGRIYPGSGNTYYAQKFQGRVTMTRDTSTSTVYMELSSLRSEDTAVYYCARGVYYYDYWGQGTLVTVSS
VL: DIQMTQSPSSLSASVGDRVTITCRASQGIRTNLAWFQQKPGKAPKSLIYSASSLQSGVPSRFSGSGSGTDFTLTISSLQPEDFATYYCQQYSSYPRTFGGGTKVEIK
notes: IgG1
B9: the binding result in test [8] and in [9] was “binds” throughout.

B10: MH5.15 (antibody, IgG1, V domains shown)
VH: QVQLVQSGAEVKKPGASVKVSCKASGYTFTDFYMNWVRQAPGQGLEWMGRIYPGTGNTYYAQKFQGRVTMTRDTSTSTVYMELSSLRSEDTAVYYCARGVWYFDSWGQGTLVTVSS
VL: DIQMTQSPSSLSASVGDRVTITCRASQGIRTNLAWFQQKPGKAPKSLIYAASSLQSGVPSRFSGSGSGTDFTLTISSLQPEDFATYYCQQYANYPRTFGGGTKVEIK
notes: IgG1
As to B10, the binding result in test [7] is “binds”.

B11: MH5.34 (antibody, IgG1, V domains shown)
VH: QVQLVQSGAEVKKPGASVKVSCKASGYTFTNYYMNWVRQAPGQGLEWMGRIYPASGNTYYAQKFQGRVTMTRDTSTSTVYMELSSLRSEDTAVYYCARGVWYFDSWGQGTLVTVSS
VL: DIQMTQSPSSLSASVGDRVTITCRASQGIRTNLAWFQQKPGKAPKSLIYAASSLQSGVPSRFSGSGSGTDFTLTISSLQPEDFATYYCQQYANYPRTFGGGTKVEIK
notes: IgG1; also called C-KIT-MH5.34
With B11, the “EC50 (read off the curve)” value in test [2] and in [3] was ~0.2 µg/mL in each case. Besides, the figures for the IC50 in test [10] and in [11] were 0.839 µg/mL and 0.532 µg/mL, respectively.

B12: MH13 (antibody, IgG1, V domains shown)
VH: QVQLVQSGAEVKKPGASVKVSCKASGYTFTDYYMNWVRQAPGQGLEWMGRIYPGSGNTYYAQKFQGRVTMTRDTSTSTVYMELSSLRSEDTAVYYCARGVYYYDYWGQGTLVTVSS
VL: DIQMTQSPSSLSASVGDRVTITCRASQGVRTNLAWFQQKPGKAPKSLIYAASSLQSGVPSRFSGSGSGTDFTLTISSLQPEDFATYYCQQYNAYPRTFGGGTKVEIK
notes: IgG1
With B12, the binding result in test [8] and in [9] was “binds” throughout.

B13: MH5.24 (antibody, IgG1, V domains shown)
VH: QVQLVQSGAEVKKPGASVKVSCKASGYTFTDFYMNWVRQAPGQGLEWMGRIYPASGNTYYAQKFQGRVTMTRDTSTSTVYMELSSLRSEDTAVYYCARGVWYFDTWGQGTLVTVSS
VL: DIQMTQSPSSLSASVGDRVTITCRASQGIRTNLAWFQQKPGKAPKSLIYAASSLQSGVPSRFSGSGSGTDFTLTISSLQPEDFATYYCQQYANYPRTFGGGTKVEIK
notes: IgG1; also called C-KIT-MH5.24
On to B13, for which the “EC50 (read off the curve)” value in test [2] and in [3] was ~0.2 µg/mL each time. Also, the IC50 was 2.2 µg/mL in test [10] and 2.74 µg/mL in [11].

B14: MH5.6 (antibody, IgG1, V domains shown)
VH: QVQLVQSGAEVKKPGASVKVSCKASGYTFTDHYMNWVRQAPGQGLEWMGRIYPGTGNTYYAQKFQGRVTMTRDTSTSTVYMELSSLRSEDTAVYYCARGVWYFDEWGQGTLVTVSS
VL: DIQMTQSPSSLSASVGDRVTITCRASQGIRTNLAWFQQKPGKAPKSLIYAASSLQSGVPSRFSGSGSGTDFTLTISSLQPEDFATYYCQQYANYPRTFGGGTKVEIK
notes: IgG1
Take B14: the binding result in [7] is on record as “binds”.

B15: MH10 (antibody, IgG1, V domains shown)
VH: QVQLVQSGAEVKKPGASVKVSCKASGYTFTDYYMNWVRQAPGQGLEWMGRIYPGSGNTYYAQKFQGRVTMTRDTSTSTVYMELSSLRSEDTAVYYCARGVYYYDYWGQGTLVTVSS
VL: DIQMTQSPSSLSASVGDRVTITCRASQGIRTNLAWFQQKPGKAPKSLIYSASSLQSGVPSRFSGSGSGTDFTLTISSLQPEDFATYYCQQYTSYPRTFGGGTKVEIK
notes: IgG1
Turning to B15, the binding result in test [8] and in [9] was “binds” in each case.
